Reference: the supplement of paper PMC10126150
± gives the standard deviation of the averaged measurements.
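Also: ATP exposure 15 min at 22 °C before imaging.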

Each sequence was assayed on ATP (assay: switch fluorescence ratio, 500 uM ATP over buffer (Cy3 cluster intensity, sum of 5 cycles each) (fold (ratio)); higher = stronger signal-on switching upon ATP binding; sequences stand for … in TCGTCGGCAGCGTCAGATGTGTATAAGAGACAGTTTTTTTTTTTTTTTTTTTTTTTTT…TC). Settings: aptamer strand: ATP DNA aptamer (quencher-CACCTGGGGGAGTATTGCGGAGGAAGG + anchor), 100 nM annealed; ATP concentration: 500 uM.
Outline: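 Clusters carrying Cy3-labelled switching strands on a modified Illumina MiSeq flow-cell were annealed to 100 nM quencher-labelled ATP aptamer and imaged in selection buffer. They were imaged again after 15 min with 500 uM ATP at 22 °C, over five buffer/ATP cycles with NaOH stripping and re-annealing in between. For each cluster, the fluorescence ratio is the summed Cy3 intensity of the target cycles divided by that of the buffer cycles, averaged per switch-domain sequence. Clusters outside 100-1000 RFU were left out.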
Sequence GCTCGCACAG has a switch fluorescence ratio of 1.321 ± 0.0081.
GCTCGGGGTG was tested, and the switch fluorescence ratio was 0.986 ± 0.032.
GCTCGTACGT was tested, and the switch fluorescence ratio was 1.01 ± 0.031.
For GCTCGTCGGC, the switch fluorescence ratio was 0.9987 ± 0.0018.
GCTCGTTAAA gave a switch fluorescence ratio of 1.04 ± 0.1.
GCTCGTTTGG was tested, and the switch fluorescence ratio was 0.9745 ± 0.0041.
With GCTCGTTTTG the switch fluorescence ratio was 0.981 ± 0.043.
GCTCTAGTGG gave a switch fluorescence ratio of 1.01 ± 0.022.
In the case of GCTCTATAAT, the switch fluorescence ratio is reported as 1.03 ± 0.0044.
GCTCTATGAC showed a switch fluorescence ratio of 1.08 ± 0.044.
Work on GCTCTCACTT yielded a switch fluorescence ratio of 1.02 ± 0.043.
GCTCTGAGCT was tested, and the switch fluorescence ratio was 1.05 ± 0.086.
GCTCTGGGGA was tested, and the switch fluorescence ratio was 1.07 ± 0.12.
With GCTCTGGGGT the switch fluorescence ratio was 1.02 ± 0.033.
Sequence GCTCTTAGCG has a switch fluorescence ratio of 1.03 ± 0.054.
GCTCTTGTCT was tested, and the switch fluorescence ratio was 0.985 ± 0.061.
Sequence GCTCTTGTTC has a switch fluorescence ratio of 0.9975 ± 0.0083.
With GCTGAAAAGA the switch fluorescence ratio was 0.97 ± 0.032.
GCTGAAAGGC showed a switch fluorescence ratio of 1.09 ± 0.061.
GCTGAAAGGG showed a switch fluorescence ratio of 0.9903 ± 0.0067.
For GCTGAAGTTC, the switch fluorescence ratio was 0.993 ± 0.025.
Sequence GCTGACGGGA has a switch fluorescence ratio of 1.1 ± 0.015.
GCTGAGGCTG was tested, and the switch fluorescence ratio was 1 ± 0.032.
In the case of GCTGAGGGAA, the switch fluorescence ratio is reported as 1.01 ± 0.028.
With GCTGATAACG the switch fluorescence ratio was 1.01 ± 0.035.
For GCTGATTTAT, the switch fluorescence ratio was 0.982 ± 0.018.
For GCTGCGAATT, the switch fluorescence ratio was 1.021 ± 0.01.
GCTGCGGCAG was tested, and the switch fluorescence ratio was 1.012 ± 0.0046.
GCTGCGGGCT was tested, and the switch fluorescence ratio was 1.18 ± 0.24.
GCTGCTGGTA was tested, and the switch fluorescence ratio was 1.02 ± 0.024.
In the case of GCTGCTGTTT, the switch fluorescence ratio is reported as 1.01 ± 0.0037.
GCTGCTTGCG gave a switch fluorescence ratio of 1 ± 0.014.
For GCTGGAAAAT, the switch fluorescence ratio was 1 ± 0.013.
In the case of GCTGGACGTG, the switch fluorescence ratio is reported as 0.9912 ± 0.0055.
GCTGGGGACT was tested, and the switch fluorescence ratio was 0.996 ± 0.02.
GCTGGGGCAG showed a switch fluorescence ratio of 1.016 ± 0.01.
Sequence GCTGGGGGCC has a switch fluorescence ratio of 0.981 ± 0.028.
Sequence GCTGGGGGGG has a switch fluorescence ratio of 1.02 ± 0.037.
For GCTGGTCATG, the switch fluorescence ratio was 0.989 ± 0.018.
GCTGGTGCGA gave a switch fluorescence ratio of 1.005 ± 0.0099.
GCTGGTGCTT gave a switch fluorescence ratio of 0.974 ± 0.022.
GCTGGTTGA showed a switch fluorescence ratio of 1.01 ± 0.014.
Sequence GCTGTCCGGA has a switch fluorescence ratio of 1.048 ± 0.0054.
Work on GCTGTGATA yielded a switch fluorescence ratio of 0.976 ± 0.019.
GCTGTGCACG gave a switch fluorescence ratio of 1.02 ± 0.02.
In the case of GCTGTGCGGG, the switch fluorescence ratio is reported as 0.95 ± 0.018.
Sequence GCTGTGGGCA has a switch fluorescence ratio of 0.977 ± 0.02.
With GCTGTGTAGG the switch fluorescence ratio was 0.994 ± 0.013.
GCTGTTGCTG showed a switch fluorescence ratio of 1 ± 0.035.
Sequence GCTTAAATCT has a switch fluorescence ratio of 1.01 ± 0.029.
GCTTAATACT gave a switch fluorescence ratio of 1.37 ± 0.054.
GCTTACGGGA was tested, and the switch fluorescence ratio was 1.028 ± 0.0016.
For GCTTAGAGGA, the switch fluorescence ratio was 1 ± 0.03.
Sequence GCTTATCTTT has a switch fluorescence ratio of 0.978 ± 0.051.
With GCTTATGAAG the switch fluorescence ratio was 1.02 ± 0.02.
GCTTATTATT was tested, and the switch fluorescence ratio was 1.023 ± 0.0026.
Work on GCTTCAAGGC yielded a switch fluorescence ratio of 1.03 ± 0.045.
In the case of GCTTCAATGT, the switch fluorescence ratio is reported as 1.03 ± 0.067.
GCTTCCTGTG was tested, and the switch fluorescence ratio was 1.49 ± 0.036.
Sequence GCTTCGGAGA has a switch fluorescence ratio of 1.029 ± 0.0017.
GCTTCTAGCT showed a switch fluorescence ratio of 0.969 ± 0.011.
In the case of GCTTCTGGCA, the switch fluorescence ratio is reported as 0.999 ± 0.023.
GCTTGAGGCT showed a switch fluorescence ratio of 0.959 ± 0.06.
For GCTTGCTCAT, the switch fluorescence ratio was 1.018 ± 0.0094.
Sequence GCTTGGAAGC has a switch fluorescence ratio of 0.9909 ± 0.0089.
GCTTGTACGT showed a switch fluorescence ratio of 1.021 ± 0.0096.
Work on GCTTGTAGCT yielded a switch fluorescence ratio of 1.02 ± 0.0095.
Work on GCTTGTAGGC yielded a switch fluorescence ratio of 0.994 ± 0.017.
GCTTGTAGGG was tested, and the switch fluorescence ratio was 0.969 ± 0.011.
GCTTGTATGA gave a switch fluorescence ratio of 1.013 ± 0.0032.
Work on GCTTGTTGTA yielded a switch fluorescence ratio of 0.998 ± 0.015.
Sequence GCTTTAACAC has a switch fluorescence ratio of 1.03 ± 0.014.
GCTTTATTAA showed a switch fluorescence ratio of 1 ± 0.017.
In the case of GCTTTATTTT, the switch fluorescence ratio is reported as 1.09 ± 0.19.
Work on GCTTTCTGCG yielded a switch fluorescence ratio of 1.05 ± 0.042.
GCTTTGAATT was tested, and the switch fluorescence ratio was 0.985 ± 0.017.
Sequence GCTTTGCGCT has a switch fluorescence ratio of 0.988 ± 0.015.
Sequence GCTTTGGGGA has a switch fluorescence ratio of 1 ± 0.025.
GCTTTGTTTT gave a switch fluorescence ratio of 1.12 ± 0.3.
For GCTTTTAGTG, the switch fluorescence ratio was 1 ± 0.039.
For GCTTTTGGGC, the switch fluorescence ratio was 0.963 ± 0.023.
GCTTTTTAAA gave a switch fluorescence ratio of 0.95 ± 0.016.
In the case of GCTTTTTGGG, the switch fluorescence ratio is reported as 0.963 ± 0.039.
In the case of GCTTTTTTGA, the switch fluorescence ratio is reported as 0.993 ± 0.042.
Sequence GGAAAAATCG has a switch fluorescence ratio of 1.013 ± 0.0051.
For GGAAAAATGA, the switch fluorescence ratio was 1 ± 0.034.
Sequence GGAAAAATGT has a switch fluorescence ratio of 1.01 ± 0.025.
In the case of GGAAAACCAG, the switch fluorescence ratio is reported as 0.982 ± 0.048.
Work on GGAAAAGTTC yielded a switch fluorescence ratio of 1 ± 0.058.
Work on GGAAACCATT yielded a switch fluorescence ratio of 1.03 ± 0.024.
GGAAACTTTG was tested, and the switch fluorescence ratio was 1.04 ± 0.11.
For GGAAAGACGA, the switch fluorescence ratio was 1.01 ± 0.016.
GGAAAGGTTT showed a switch fluorescence ratio of 1.01 ± 0.064.
GGAAAGTGAT gave a switch fluorescence ratio of 1.2 ± 0.26.
For GGAAATTGTA, the switch fluorescence ratio was 0.986 ± 0.0059.
GGAACAGCTT showed a switch fluorescence ratio of 0.983 ± 0.017.
GGAACGTATT gave a switch fluorescence ratio of 1.0119 ± 8.1e-05.
For GGAAGCGTTC, the switch fluorescence ratio was 1.03 ± 0.04.
In the case of GGAAGGCGGG, the switch fluorescence ratio is reported as 1.11 ± 0.16.
GGAAGTGGGC was tested, and the switch fluorescence ratio was 1.0283 ± 0.00079.
GGAAGTTAGT was tested, and the switch fluorescence ratio was 0.98253 ± 0.00016.
In the case of GGAATAAAGT, the switch fluorescence ratio is reported as 0.996 ± 0.021.
Work on GGAATACTAG yielded a switch fluorescence ratio of 1.14 ± 0.053.
With GGAATACTTT the switch fluorescence ratio was 1.01 ± 0.028.
With GGAATAGAGT the switch fluorescence ratio was 1.02 ± 0.021.
With GGAATCAGGG the switch fluorescence ratio was 0.99 ± 0.07.
In the case of GGAATCCATG, the switch fluorescence ratio is reported as 0.977 ± 0.0013.
In the case of GGAATGAAGT, the switch fluorescence ratio is reported as 1.07 ± 0.049.
In the case of GGAATGCCGG, the switch fluorescence ratio is reported as 1.02 ± 0.021.
With GGAATGGTTT the switch fluorescence ratio was 0.987 ± 0.064.
GGAATGTAGG was tested, and the switch fluorescence ratio was 0.99 ± 0.027.
GGAATGTTGG was tested, and the switch fluorescence ratio was 0.991 ± 0.032.
Work on GGAATGTTTG yielded a switch fluorescence ratio of 0.977 ± 0.035.
GGAATTAAAT was tested, and the switch fluorescence ratio was 0.985 ± 0.027.
For GGAATTATGA, the switch fluorescence ratio was 0.995 ± 0.024.
In the case of GGAATTATGT, the switch fluorescence ratio is reported as 1.02 ± 0.041.
Work on GGAATTCGAT yielded a switch fluorescence ratio of 1.004 ± 0.006.
For GGAATTGGCG, the switch fluorescence ratio was 1.03 ± 0.023.
In the case of GGAATTGGGT, the switch fluorescence ratio is reported as 0.99 ± 0.044.
Work on GGACAAGAGA yielded a switch fluorescence ratio of 0.996 ± 0.038.
GGACAATATA gave a switch fluorescence ratio of 1.003 ± 0.0016.
GGACAGAGGT was tested, and the switch fluorescence ratio was 1 ± 0.044.
In the case of GGACAGGGGT, the switch fluorescence ratio is reported as 1.03 ± 0.073.
With GGACATATTT the switch fluorescence ratio was 1.03 ± 0.042.
Work on GGACATGGAC yielded a switch fluorescence ratio of 0.9775 ± 0.0044.
GGACATGGGT was tested, and the switch fluorescence ratio was 1 ± 0.019.
Sequence GGACATTATA has a switch fluorescence ratio of 1.031 ± 0.0056.
With GGACCAAGGT the switch fluorescence ratio was 1.01 ± 0.014.
GGACGAGGTG gave a switch fluorescence ratio of 0.9756 ± 0.0049.
In the case of GGACGCCTTG, the switch fluorescence ratio is reported as 0.976 ± 0.029.
Sequence GGACGCCTTT has a switch fluorescence ratio of 0.9753 ± 0.0077.
GGACGCTATC was tested, and the switch fluorescence ratio was 3.89 ± 0.42.
For GGACGGGTTA, the switch fluorescence ratio was 1 ± 0.016.
GGACGGTATG showed a switch fluorescence ratio of 1.02 ± 0.031.
GGACGTTTTG gave a switch fluorescence ratio of 0.98 ± 0.012.
GGACTAGGAG showed a switch fluorescence ratio of 1.05 ± 0.012.
For GGACTCCCAT, the switch fluorescence ratio was 1.23 ± 0.074.
With GGACTTGCGA the switch fluorescence ratio was 1.043 ± 0.0042.
Work on GGACTTTAAG yielded a switch fluorescence ratio of 0.952 ± 0.046.
Sequence GGACTTTAAT has a switch fluorescence ratio of 1 ± 0.017.
Sequence GGAGAAAAGA has a switch fluorescence ratio of 0.9862 ± 0.0076.
GGAGAAATTT was tested, and the switch fluorescence ratio was 0.9816 ± 0.0062.
GGAGAACTTA gave a switch fluorescence ratio of 1.04 ± 0.051.
GGAGAAGGCG was tested, and the switch fluorescence ratio was 0.994 ± 0.053.
In the case of GGAGAAGGGA, the switch fluorescence ratio is reported as 0.973 ± 0.062.
In the case of GGAGACGGGA, the switch fluorescence ratio is reported as 1.06 ± 0.016.
For GGAGAGGGGA, the switch fluorescence ratio was 0.982 ± 0.014.
GGAGAGTCCG was tested, and the switch fluorescence ratio was 1.03 ± 0.036.
GGAGATATGT gave a switch fluorescence ratio of 0.987 ± 0.026.
Work on GGAGATTGGG yielded a switch fluorescence ratio of 0.9697 ± 0.0033.
GGAGATTGGT showed a switch fluorescence ratio of 0.983 ± 0.024.
With GGAGATTTTG the switch fluorescence ratio was 1 ± 0.042.
GGAGCACGTG showed a switch fluorescence ratio of 1.12 ± 0.058.
